In the supplement of paper PMC10126150:
± gives the standard deviation of the averaged measurements.

System: ATP
Experiment: switch fluorescence ratio, 500 uM ATP over buffer (Cy3 cluster intensity, sum of 5 cycles each) (fold (ratio)); higher = stronger signal-on switching upon ATP binding; sequences stand for … in TCGTCGGCAGCGTCAGATGTGTATAAGAGACAGTTTTTTTTTTTTTTTTTTTTTTTTT…TC
Conditions: aptamer strand: ATP DNA aptamer (quencher-CACCTGGGGGAGTATTGCGGAGGAAGG + anchor), 100 nM annealed; ATP concentration: 500 uM
Outline: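 After annealing to 100 nM quencher-labelled ATP aptamer, Cy3-labelled switching-strand clusters on a modified Illumina MiSeq flow-cell were imaged in selection buffer. A second image followed after 15 min with 500 uM ATP at 22 °C, and five such buffer/ATP cycles were done, each separated by NaOH stripping and re-annealing. The fluorescence ratio, averaged per switch-domain sequence, is summed target-cycle over summed buffer-cycle Cy3 intensity per cluster, with clusters outside 100-1000 RFU excluded.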
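Note: ATP exposure 15 min at 22 °C before imaging.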

Sequence	switch fluorescence ratio
CGTGAAGGTG	1.24 ± 0.074
GAGGGGTGGA	0.996 ± 0.015
CGTGAAATGT	0.9863 ± 0.0075
AATGTTAAAT	0.979 ± 0.02
GAAGGGTTTG	0.9968 ± 0.0053
AAGCAGTAGC	1.05 ± 0.0043
GGTGTAATTG	1.003 ± 0.0065
TAGATGGGGC	0.967 ± 0.029
CCATGGCCTG	0.97 ± 0.042
GCCTAACACT	1.01 ± 0.04
TGGAGAAGGT	1.02 ± 0.027
TATTTTGGCG	0.986 ± 0.025
ATGGATAAGC	0.997 ± 0.011
GAAAAATTTC	0.99 ± 0.028
TTAATTTGTC	1.03 ± 0.061
AAAATATACA	1.01 ± 0.027
AAGATAGAAA	1.01 ± 0.013
GATTGGTTGC	0.9941 ± 0.0019
AGTGTACGGG	1.083 ± 0.0077
ACACAAGGTC	1.03 ± 0.041
GCGTTGCATT	1 ± 0.017
GGTGCAGTGT	1.05 ± 0.017
GCTCGGAGGA	1 ± 0.025
AAGCGGGTTT	0.96 ± 0.03
ATATCATGGG	0.982 ± 0.017

Sequence	switch fluorescence ratio
ATGCAGGTAT	1.01 ± 0.049
GTGTCTGTTG	0.981 ± 0.02
AAGGCTGTGT	1.001 ± 0.0095
AAGAGCGGGA	0.989 ± 0.041
TCAGATTAGT	0.968 ± 0.016
CAAATAGATG	1 ± 0.029
GGTTGGTGGG	0.969 ± 0.044
TCTACTGGGT	0.993 ± 0.033
GGCTTGAACT	1.05 ± 0.083
GTTATATTGT	0.9943 ± 0.0096
GGACTGGGCT	0.9806 ± 0.0081
TAACTATTCC	1.23 ± 0.082
TGAAATTTAG	1.01 ± 0.047
CAATGGAGAG	1 ± 0.018
CAGGGGCTGG	1.05 ± 0.03
TTTATAGGTC	0.994 ± 0.038
GAACTTGATG	0.997 ± 0.036
AGTTAGGTGT	1.04 ± 0.044
AGTAGGGTTT	0.9932 ± 0.0097
ACGCGTCAGC	1.01 ± 0.021
ATGGATTGAT	0.9621 ± 0.0051
GTTTTTGTCA	1.021 ± 0.008
CATACAATAT	1.109 ± 0.0014
GGGGGGAAGA	0.994 ± 0.025
CCATGACTCT	0.983 ± 0.016

Sequence	switch fluorescence ratio
TAGGCAGGGG	1.08 ± 0.021
CAATTGCAGG	1.01 ± 0.014
GGTGGGTGAG	0.9745 ± 0.0094
GAGATCAGTT	0.9808 ± 0.0058
TAGGAGGCGG	0.958 ± 0.039
TTGAACGTTT	0.974 ± 0.019
GACGGGATAG	1.245 ± 0.0072
CGAGTGGGGA	1.04 ± 0.041
CGGCTCTTTG	0.985 ± 0.043
GATGGGGGTC	1.21 ± 0.34
ACCGCTGGTC	1.13 ± 0.056
TGGGGGGTCG	1.03 ± 0.051
TTCCAGTATT	1.05 ± 0.049
ATGAGCACAA	1.09 ± 0.017
GTCGATTTAT	0.986 ± 0.045
GGTGGGCAAT	1.11 ± 0.045
GATTGGAGCG	1.008 ± 0.0031
GTTTAAAATG	1 ± 0.024
ATAAAAGAAG	1.01 ± 0.041
GCTACAGGTT	1.007 ± 0.0092
ATCGTGTAGG	0.99 ± 0.11
TATAGCATCT	1.047 ± 0.01
AGTAAAGTGT	0.99703 ± 0.00028
TTCGGAGGAT	1.02 ± 0.048
GGGCACTTGT	1.01 ± 0.04

Sequence	switch fluorescence ratio
AGGATGGGG	0.9741 ± 0.0069
TGGGTCTGTT	1.01 ± 0.046
ACGTCTACTC	1.37 ± 0.1
CGGATGTTGG	1.02 ± 0.12
AGTTTAACTA	1 ± 0.025
TTTAGTGTTT	1.004 ± 0.007
GTTTTGGGCT	1.01 ± 0.032
AAGAGGAGCG	0.9668 ± 0.0078
AGAACGTCTG	0.9969 ± 0.0022
AAGTCATTTA	0.9881 ± 0.0096
TTTTAACTGG	0.988 ± 0.034
AAAACCGCGA	1.59 ± 0.28
TTCCGGTGAA	1.0572 ± 0.00078
TTAGTGGTTG	0.992 ± 0.014
GTGTGGCTGG	0.9398 ± 0.0088
ACCAACTCAA	1.18 ± 0.037
CGGGCTGGGG	0.993 ± 0.039
AGGAATGTTT	0.985 ± 0.0099
AGGGGGGCTA	0.991 ± 0.038
CAGGATGCGT	0.9611 ± 0.0076
CCTAGGTAAA	0.993 ± 0.034
TAGGTCTACG	1.02 ± 0.019
GCATTTTGAA	1.02 ± 0.026
GGGGATGAGA	0.986 ± 0.01
TATGTTAGTT	1.01 ± 0.019
